# Publication PMC3064727
# Substrate: CC(C)C[C@H](N)C(=O)O
# Assay: pyrophosphate release assay of A-domain adenylation
# Assay type: biochemical, Aspergillus terreus
# Conditions: holo C-A-T-R module
protein,measurement,value
NRPS325 (Aspergillus terreus NIH2624) (protein) PTVERHVESQEPVVEAAVVASSSDSSSEGTMTPPSSRGINTPHTEITNLQLESVKSKACTAVQRREKMSFSQNRLWFPSAYLEQETPFNCTTSYTLTGPLDTARLENAFQRLIQRHESFRTAFYTDEVSGAAMQRVLASSPFQLRTMLGNKDDMQRVFRQIANYHFDLSVADTLVATLISHGPKDHTIVFGYHHIIMDGVSWQITLNDLARFYESDNPELPQLSQYIEFSVKQRQLVSSGAHDAKLSYWRKEFPSAPPLLPLFPFAKVGARKALTRYDTLDYIYDVDVSLVSKIKKASLAAKTTTFHFYLAAFVVLLNRFLEIDDVCLGIIDANRSDKTFLNTVGFLLDMLPLRLKVNKKERFVHTLRNTRAKAYNALEHSGVPLETILKELQVPTSATNTPLFQVLMNYRMGALRAPQMGDAKMNFLDYEDAKAPFDLAISIDEKDDGTGMLTFSMQDYMYDWEGAELLVKTYVHLLDTLATDSSQRINEVSLFDESLVNQSMVAGTGPVTGLDWAGTETISQRVDAMTAQRPDGVAVKDLNGKARTYAETQARVYALASSLQQAGITSGARVAVYCEPTVDTVALVLAIYRVGAAYIPLDVRNSHERLADVVRECKPTLILYHGATKHTLVDVAGDGQDALDIDTVPQSAAPIPDVSKLSDPAVILYTSGSTGKPKGIMLTHANLSLQFASISSALDLTDRDVVLQQSALGFDASLSQMFMALTNGGTLIHGSNRGDPVDLAALIEREGVTLTLIMISEMSALLQYGSDILSRCQSWRIALCGGEAFTVNLLRKFRDLNLPNLELYNAYGPTEASIMSSLGKVAYRRTDWGDGSVVPVGPPLPNYGVYVLDENFQPCPLGWPGELCICGPGVAEGYVGLPELTSSKFQPDQLRKPQGPSYDGWVRVYRTGDKARLLQDGSFVFLGRMDGDSQVKLRGIRIELNDISNSIVKTSKEAIVDAATIVKGTTSQTLVSFVVFAPAKVVDLERSNSSASAYLRQVIQSLPLPVYMRPAIAVPLERLPFTERGKLDTKALAAIPIQEDEETVNEELSETEQKLKQVWQDILSEQGMSLEIRRQSDFFSVGGNSLMLMRVRAKMLEVFGVSVPLAELFQASTLETLASRLDGNKTAESDNIVWNEETALDVSLPPAIAHPRDHPEKDLSVILTGSTGFLGRAIVRQLIADPRISTIHCLAVRPGRTLPEELVGSSKVIVYTGDLAAKRLGLSAPQAQEIFSSAAAIIHNGAEVSHMKSYHSLRPTNVDSTRQLVELALRSSIDSAVRTPAFHYVSTAGVGHLLGIPAFPEQSVSSSPPPVDGSDGYVAAKWASERILEQASERLGLPVFIHRPSNITGPDVGDRDIIHNVWRWSEVLRAVPDLVAAGAKGAFDFVGVETCAKGITDTLFVQASAGHLAYIHQSGENVIPVEEFGECLQRNGGADVELVPFDQWVDKAVQAGLDDLVASFLRGTKGAFQMPFLPKGLRQ,Km,310.0 ± 15.5 µM
same,kcat,17.2 ± 2.4 min⁻¹
